Starred links: 1 amine or outer side, 2 acyl side, 3 side chain; linkers in the order of their positions; H or OH if unused. Positions of bridges follow the written chain, without caps; N, C: chain ends. Non-standard residues stand in square brackets, D forms with d. Groups on a side chain read outwards from the residue. Primed or numbered codes have the meaning given here. No end group written: not given here. *: point of attachment. PEG8′ = PEG8 unit (23-azido-3,6,9,12,15,18,21-heptaoxatricosyl, i.e. an eight-unit PEG spacer) linking the triazole to vitamin E succinate; Pra′ = propargylglycine (built in as LPH), clicked to a 1-substituted triazol-4-yl-alanine, O=C([C@H](Cc1cn([*:3])nn1)N[*:1])[*:2]; PEG6′ = PEG6 spacer (17-azido-3,6,9,12,15-pentaoxaheptadecyl) linking the triazole to vitamin E succinate; X1 = (S)‑3‑carboxy‑3‑(15-carboxypentadecanoylamino)propyl, O=C(O)CCCCCCCCCCCCCCC(=O)N[C@@H](CC*)C(=O)O; Pra″ = its azide, alkyne or alkene has reacted where a group follows in round brackets; X2 = (S)‑3‑carboxy‑3‑palmitamidopropyl, CCCCCCCCCCCCCCCC(=O)N[C@@H](CC*)C(=O)O; Pra(3) = propargylglycine, clicked to an azide to give a triazolyl-alanine; triazole = 1,2,3-triazole formed by click of the Pra alkyne with the azide; Trp(1-CH2CO) = O=C([C@H](Cc1cn(CC(=O)[*:3])c2ccccc12)N[*:1])[*:2]; Phe(3,4,5-F3) = N[C@@H](Cc1cc(F)c(F)c(F)c1)C(=O)O; Biotin = O=C1N[C@H]2[C@H](CS[C@H]2CCCCC(=O)*)N1; C18 diacid = O=C(O)CCCCCCCCCCCCCCCCC(=O)*; Phe(4-F) = N[C@@H](Cc1ccc(F)cc1)C(=O)O; γGlu = O=C(O)[C@H](CCC(=O)[*:2])N[*:1]; Palmitoyl = CCCCCCCCCCCCCCCC(=O)*; Hyp = O=C(O)[C@@H]1C[C@@H](O)CN1; NMeF = CN[C@@H](Cc1ccccc1)C(=O)O; NMeE = CN[C@@H](CCC(=O)O)C(=O)O; dHyp = O=C(O)[C@H]1C[C@H](O)CN1; NMeNle = CCCC[C@H](NC)C(=O)O; Suc = O=C(CCC(=O)[*:2])[*:1]; triazole″ = not defined here; Bzt = benzothienylalanine; Pip = O=C(O)[C@@H]1CCCCN1; NMeA = CN[C@@H](C)C(=O)O; Orn = NCCC[C@H](N)C(=O)O; PEG4′ = not defined here; PEG7′ = not defined here; Pra = C#CC[C@H](N)C(=O)O; Dab = NCC[C@H](N)C(=O)O; Dap = NC[C@H](N)C(=O)O; Sar = CNCC(=O)O

First the molecules themselves.
B1: Example 14051 (peptide)
peptide: YADPHKPWKWXXECGXG
modifications: as m106 (INT 1400A); Pra triazole-linked to vitamin E succinate 5-azidopentylamide
B2: Example 14087 (peptide)
peptide: FFXPDVFXPWYLCGX
modifications: as m16 (INT 1400K); Pra triazole-linked to vitamin E succinate 5-azidopentylamide
B3: Example 14056 (peptide)
peptide: YADPHKPWKWXXECGXD
modifications: as m107 (INT 1400B); Pra triazole-linked to vitamin E succinate 5-azidopentylamide
B4: Example 14054 (peptide)
peptide: YADPHQPWSWXXECGXG
modifications: as m108 (INT 1400C); Pra triazole-linked to vitamin E succinate 5-azidopentylamide
B5: Example 14084 (peptide)
peptide: {CH2CO}-[Phe(3,4,5-F3)][NMeF][NMeNle][dHyp]DV[NMeF]D[dP]WYLCG[Pra″]([triazole-(S)‑3‑carboxy‑3‑aminopropyl-Palmitoyl])
modifications: thioether N-13; not fully specified; printed as ClAc-F3Phe-mPhe-mNle-dHyp-Asp-Val-mPhe-Asp-dPro-Trp-Tyr-Leu-Cys-Gly-[(S)-propargylglycine]
B6: INT-1400J (peptide)
peptide: {CH2CO}-Y[NMeA]DPHK[Hyp]WK[Trp(1-CH2CO)][NMeNle][NMeNle]ECG[Pra]
modifications: thioether N-14; not fully specified (C-terminus); printed as ClAc-Tyr-mAla-Asp-Pro-His-Lys-Hyp-Trp-Lys-Trp(1-carboxymethyl)-mNle-mNle-Glu-Cys-Gly-[(S)-propargylglycine], cyclised ClAc-Cys
notes: also called Intermediate 1400J
B7: Example 14088 (peptide)
peptide: FFXPDVFDPWYLCGX
modifications: as m17 (INT 1400L); Pra triazole-linked to vitamin E succinate 5-azidopentylamide

T1 sequence (Q9NZQ7 other isoform, or with tags, fused parts or gaps limits assumed): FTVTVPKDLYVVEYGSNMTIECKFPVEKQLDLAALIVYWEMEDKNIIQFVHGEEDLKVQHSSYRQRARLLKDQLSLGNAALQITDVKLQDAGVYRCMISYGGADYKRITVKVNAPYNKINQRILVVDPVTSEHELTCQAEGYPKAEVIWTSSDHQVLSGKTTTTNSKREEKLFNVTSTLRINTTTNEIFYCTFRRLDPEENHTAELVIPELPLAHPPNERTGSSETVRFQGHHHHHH

The first assay concerns the target T1, Recombinant Human PD-L1-TVMV-His (human, UniProt Q9NZQ7 19-239).
T1 construct: expressed in HEK293T cells; also called PD-L1-His; hPD-L1(19-239)-TVMV-His
The assay is described as follows: HTRF vs PD-1-Ig; A = IC50 0.10-1.6 µM. On the procedure:
(§1) Homogenous Time-Resolved Fluorescence (HTRF) Assays of Binding of Soluble PD-1 to Soluble PD-L1. Soluble PD-1 and soluble PD-L1 refers to proteins with carboxyl-end truncations that remove the transmembrane-spanning regions and are fused to heterologous sequences, specifically the Fc portion of the human immunoglobuling G sequence (Ig) or the hexahistidine epitope tag (His). All binding studies were performed in an HTRF assay buffer consisting of dPBS supplemented with 0.1% (w/v) bovine serum albumin and 0.05% (v/v) Tween-20. For the PD-1-Ig/PD-L1-His binding assay, inhibitors were pre-incubated with PD-L1-His (10 nM final) for 15 m in 4 μl of assay buffer, followed by addition of PD-1-Ig (20 nM final) in 1 μl of assay buffer and further incubation for 15 m. PD-L1 fusion proteins from either human, cynomologous macaques, mouse, or other species were used. HTRF detection was achieved using europium crypate-labeled anti-Ig monoclonal antibody (1 nM final) and allophycocyanin (APC) labeled anti-His monoclonal antibody (20 nM final). Antibodies were diluted in HTRF detection buffer and 5 μl was dispensed on top of binding reaction. The reaction was allowed to equilibrate for 30 minutes and signal (665 nm/620 nm ratio) was obtained using an EnVision fluorometer. Additional binding assays were established between PD-I-Ig/PD-L2-His (20 and 5 nM, respectively), CD80-His/PD-L1-Ig (100 and 10 nM, respectively) and CD80-His/CTLA4-Ig (10 and 5 nM, respectively). Binding/competition studies between biotinylated Compound No. 71 and human PD-L1-His were performed as follows. Macrocyclic peptide inhibitors were pre-incubated with PD-L1-His (10 nM final) for 60 minutes in 4 μl of assay buffer followed by addition of biotinylated Compound No. 71 (0.5 nM final) in 1 μl of assay buffer. Binding was allowed to equilibrate for 30 minutes followed by addition of europium crypated labeled Streptavidin (2.5 pM final) and APC-labeled anti-His (20 nM final) in 5 μl of HTRF buffer. The reaction was allowed to equilibrate for 30 m and signal (665 nm/620 nm ratio) was obtained using an EnVision fluorometer.
Background: In TR-FRET formats the signal depends on donor and acceptor labels being close together.
The IC50 is the concentration at which inhibition is half-maximal. Regarding B1, the IC50 fell in the range of 100 to 1600 nM.
For B2, the IC50 lay in the range of 100 to 1600 nM.
Take {CH2CO}-[Phe(3,4,5-F3)][NMeF][NMeNle][dP]DV[NMeF][Orn][dP]WYLCG[Pra′]([triazole-X2]) (thioether N-13) [Example 14081]: the IC50 lay within 100 to 1600 nM.
Same read-out and setting: to {CH2CO}-Y[NMeA]DPHK[Hyp]WKW[NMeNle][NMeNle]ECG[Pra(3)]([triazole″-PEG6′-Suc-vitamin E])G (thioether N-14; reading uncertain) [Example 14053] belongs 100 to 1600 nM.
On the same count and under the same terms, with B3 the figure was 100 to 1600 nM.
The same measure, in the same setting: with {CH2CO}-Y[NMeA]DPHK[Hyp]WKW[NMeNle][NMeNle]ECG[Pra(3)]([triazole″-PEG8′-Suc-vitamin E])D (thioether N-14; reading uncertain) [Example 14057] the figure was 100 to 1600 nM; with {CH2CO}-Y[NMeA]NP[Dap]L[Hyp]WS[Bzt][NMeNle][NMeNle]RCG[Pra] (thioether N-14; not fully specified (residue 16)) [Example 14058], 100 to 1600 nM; with B4, 100 to 1600 nM.
For the molecule {CH2CO}-Y[NMeA]NP[Dap]L[Hyp]W[Dab][Trp(1-CH2CO)][NMeNle][NMeNle]LCGG[Pra″]([triazole-(S)‑4‑azido‑2‑palmitamidobutanoic acid]) (thioether N-14 (inferred)) [Example 13122], the IC50 is 100 to 1600 nM.
Still for that read-out and setting: with {CH2CO}-Y[NMeA]DPHK[Hyp]WKW[NMeNle][NMeNle]ECG[Pra(3)]([triazole″-PEG4′-Suc-vitamin E])G (thioether N-14; reading uncertain) [Example 14060] the figure was 100 to 1600 nM.

The next assay addresses T1, Recombinant Human PD-L1-TVMV-His. Nature of the assay: HTRF vs PD-1-Ig. How it is done:
as §1
With {CH2CO}-Y[NMeA]NP[Dap]L[Hyp]W[Dab][Trp(1-CH2CO)][NMeNle][NMeNle]LCGG[Pra″]([triazole-PEG7′-γGlu-C18 diacid]) (thioether N-14 (inferred)) [Example 13123], the IC50 was found to be 150 nM.
On the same count and under the same terms, to {CH2CO}-Y[NMeA]DPHK[Hyp]WK[Trp(1-CH2CO)][NMeNle][NMeNle]ECG[Pra′]([triazole-X2]) (thioether N-14) [Example 14072] belongs 8.5 nM; to {CH2CO}-Y[NMeA]DPHK[Hyp]WKW[NMeNle][NMeNle]ECG[Pra′]([triazole-X1]) (thioether N-14) [Example 14067], 10.4 nM; to {CH2CO}-F[NMeF][NMeNle][Sar]DV[NMeF]Y[NMeE]WYLCGGGK([PEG4‑propionyl-Biotin])-NH2 (thioether N-13) [Example 3620], 9 nM.
Same read-out and setting: with B5 the figure was 627 nM; with {CH2CO}-Y[NMeA]DPHQ[Hyp]WSW[NMeNle][NMeNle]ECG[Pra(3)]([triazole″-PEG8′-Suc-vitamin E])G (thioether N-14; reading uncertain) [Example 14055], 388 nM; with B6, 8.8 nM.
Still for that read-out and setting: to B7 belongs 799 nM; to {CH2CO}-Y[NMeA]DPHK[Hyp]WK[Trp(1-CH2CO)][NMeNle][NMeNle]ECG[Pra′]([triazole-X1]) (thioether N-14) [Example 14078], 10.8 nM.
As to {CH2CO}-[Phe(4-F)][Pip]DP[Dap]L[Hyp]W[Dab][Trp(1-CH2CO)][NMeNle][NMeNle]LCG[Dab]([γGlu-C18 diacid]) (thioether N-14 (inferred)) [Example 13150], the IC50 is 20.9 nM.

The next assay has the same target. The assay is described as follows: HTRF vs PD-1-Ig; B = IC50 0.01-0.099 µM. How it is done:
as §1
As to {CH2CO}-Y[NMeA]DPHK[Hyp]WK[Trp(1-CH2CO)][NMeNle][NMeNle]ECG[Pra′]([triazole-X1]) (thioether N-14) [Example 14078], the IC50 was 10 to 99 nM.

(Values after patent US20160137696A1 (Bristol-Myers Squibb, published 2016).)
